Source: patent US20090087417A1, “METHODS FOR PROMOTING DOPAMINERGIC NEURONAL DEVELOPMENT BY USING NG4A-SUBFAMILY AND WNT-LIGANDS” (priority 2002, published 2009)

Tested on: E14.5 VM precursor cultures
Test: Real time RT-PCR of gene expression in Wnt-treated VM precursor cultures
Type: cell-based, rat
Conditions: 3 days in vitro
Text: Total RNA was isolated from confluent T1A astrocyte cultures derived from ventral mesencephalon, dorsal mesencephalon and cortex of P1 rats and from tissue dissected from E10.5, E11.5, E13.5, E15.5 and P1 ventral and dorsal mesencephalon, and E14, E16, E18 and P1 cortex, using RNeasy extraction kit (Qiagen, Hilden, Germany). Total RNA was also extracted from E14.5 VM precursor cultures (7.5 million cells in 100 mm dishes) treated with wnts for 3 days in vitro (triplicate determination). For the reverse transcription, […] of total RNA was initially treated with 1 unit RQ1 Rnase-free DNAse (Promega, Madison, USA) for 40 minutes. The DNAse was inactivated by the addition of 1 μl of EDTA 0.02M and incubation at 65° C. for 10 minutes. 0.5 μg random primers (Life Technologies, Grand Island, N.Y., USA) were then added, and the mixture was incubated at 70° C. for 10 minutes. Each sample was then equally divided in two tubes, a cDNA reaction tube and a negative control tube. A master mix containing 1× First-Strand Buffer (Life Technologies, Grand Island, N.Y., USA), 0.01M DTT (Life Technologies, Grand Island, N.Y., USA) and 0.5 mM dNTPS (Promega, Madison, USA) was then added to both cDNA and RT− tubes and incubated at 25° C. for 10 minutes, followed by a 2 minutes incubation at 42° C. 200 units of Superscript II reverse transcriptase (Life Technologies, Grand Island, N.Y., USA) were then added only to the cDNA tubes and all sample were incubated at 42° C. for 50 minutes. Superscript II was inactivated with an incubation for 10 minutes at 70° C. Both cDNA and RT− were then diluted 10 times, for further analysis.
Real-time PCR was performed in triplicates, with 1 μl 1:10 diluted cDNA and RT−, in a total volume of 25 μl. Each PCR reaction consisted on 1×PCR buffer (Life Technologies, Grand Island, N.Y., USA), 3 mM MgCl2 (Life Technologies, Grand Island, N.Y., USA), 0.2 mM dNTPs (Promega, Madison, USA), 0.3 μM each of the forward and reverse primers, 1 unit Platinum Taq DNA polymerase (Life Technologies, Grand Island, N.Y., USA) and 1×SYBR Green (Molecular Probes, Leiden, The Netherlands). The PCR was performed at 94° C. for 2 min and then for 35-40 cycles at 94° C. for 30 s, at 60° C. for 30-45 s, at 72° C. for 45-60 s and at 80° C. for 15 s (for SYBR Green detection) on the ABI PRISM 5700 Detection System (PE Applied Biosystems, Foster City, Calif., USA). Other annealing temperatures included 54° C. for Wnt 5a, 57° C. for p27, 62° C. for Cyclin D1, 61° C. for Cyclin D2 and 65° C. for p57. A melting curve was obtained for each PCR product after each run, in order to confirm that the SYBR Green signal corresponded to a unique and specific amplicon. The specificity of the PCR product was verified by sequencing.
Standard curves were generated in every 96-wells plate real time PCR run, using serial 3-fold dilutions of a reverse transcribed RNA or plasmid containing the sequence of interest for every probe. The resulting standard curve plots were then used to convert the Cts (number of PCR cycles needed for a given template to be amplified to an established fluorescence threshold) into arbitrary quantities of initial template of a given sample.
The expression levels were obtained by subtracting the RT− value for each sample from the corresponding RT+ value and then dividing that number by the value of the house-keeping gene, 18S, obtained for every sample in parallel assays.
Statistical analysis of the results was performed by one way ANOVA. Fisher's protected least significant difference was used post hoc to identify specific points at which the different developmental stages differed from the earliest, only when significant interactions occurred. Significance for all tests was assumed at the level of p<0.05 (*p<0.05; **p<0.001; ***p<0.000).

Molecule | cyclin D1 mRNA | cyclin D2 mRNA | cyclin D3 mRNA | p27 mRNA | p57 mRNA | Ptx3 mRNA | c-ret expression | expression of GFR[…]1 | expression of NCAM | p21 mRNA expression
Wnt-7a: Partially purified / conditioned media from Wnt-7a overexpressing fibroblast cell line (protein, UniProt P24383 32-349, looked up, conditioned medium, Partially purified / conditioned media from Wnt-7a overexpressing fibroblast cell line) Protein Wnt-7a: LGASIICNKIPGLAPRQRAICQSRPDAIIVIGEGSQMGLDECQFQFRNGRWNCSALGERTVFGKELKVGSREAAFTYAIIAAGVAHAITAACTQGNLSDCGCDKEKQGQYHRDEGWKWGGCSADIRYGIGFAKVFVDAREIKQNARTLMNLHNNEAGRKILEENMKLECKCHGVSGSCTTKTCWTTLPQFRELGYVLKDKYNEAVHVEPVRASRNKRPTFLKIKKPLSYRKPMDTDLVYIEKSPNYCEEDPVTGSVGTQGRACNKTAPQASGCDLMCCGRGYNTHQYARVWQCNCKFHWCCYVKCNTCSERTEMYTCK | increased | not regulated | No regulation | decreased | decreased |  |  |  |  | 
Wnt-2: Partially purified / conditioned media from Wnt-2 overexpressing fibroblast cell line (protein, UniProt P21552 26-360, looked up, conditioned medium, Partially purified / conditioned media from Wnt-2 overexpressing fibroblast cell line) Protein Wnt-2: SWWYMRATGGSSRVMCDNVPGLVSRQRQLCHRHPDVMRAIGLGVAEWTAECQHQFRQHRWNCNTLDRDHSLFGRVLLRSSRESAFVYAISSAGVVFAITRACSQGELKSCSCDPKKKGSAKDSKGTFDWGGCSDNIDYGIKFARAFVDAKERKGKDARALMNLHNNRAGRKAVKRFLKQECKCHGVSGSCTLRTCWLAMADFRKTGDYLWRKYNGAIQVVMNQDGTGFTVANKRFKKPTKNDLVYFENSPDYCIRDREAGSLGTAGRVCNLTSRGMDSCEVMCCGRGYDTSHVTRMTKCECKFHWCCAVRCQDCLEALDVHTCKAPKSADWATPT | slight upregulation | increases | No regulation | increases | increases |  |  |  |  | 
Wnt-5a: Partially purified conditioned media from stable fibroblast cell line engineered to secrete Wnt-5a ligand (protein, left off: small tags and cut ends) IIGAQPLCSQLAGLSQGQKKLCHLYQDHMQYIGEGAKTGIKECQYQFRHRRWNCSTVDNTSVFGRVMQIGSRETAFTYAVSAAGVVNAMSRACREGELSTCGCSRAARPKDLPRDWLWGGCGDNIDYGYRFAKEFVDARERERIHAKGSYESARILMNLHNNEAGRRTVYNLADVACKCHGVSGSCSLKTCWLQLADFRKVGDALKEKYDSAAAMRLNSRGKLVQVNSRFNSPTTQDLVYIDPSPDYCVRNESTGSLGTQGRLCNKTSEGMDGCELMCCGRGYDQFKTVQTERCHCKFHWCCYVKCKKCTEIVDQFVCK | not | not affected | not |  | not | increased | upregulated | maintained | maintained | neither affected
Wnt-1: Partially purified conditioned media from stable fibroblast cell line engineered to secrete Wnt-1 ligand (protein, left off: small tags and cut ends) ANSSGRWWGIVNIASSTNLLTDSKSLQLVLEPSLQLLSRKQRRLIRQNPGILHSVSGGLQSAVRECKWQFRNRRWNCPTAPGPHLFGKIVNRGCRETAFIFAITSAGVTHSVARSCSEGSIESCTCDYRRRGPGGPDWHWGGCSDNIDFGRLFGREFVDSGEKGRDLRFLMNLHNNEAGRTTVFSEMRQECKCHGMSGSCTVRTCWMRLPTLRAVGDVLRDRFDGASRVLYGNRGSNRASRAELLRLEPEDPAHKPPSPHDLVYFEKSPNFCTYSGRLGTAGTAGRACNSSSPALDGCELLCCGRGHRTRTQRVTERCNCTFHWCCHVSCRNCTHTRVLHECL | upregulated | not affected | upregulated | downregulated | downregulated |  | not | repressed | repressed | neither affected
